Substrate: NC(=O)C1=CN([C@@H]2O[C@H](COP(=O)(O)OP(=O)(O)OC[C@H]3O[C@@H](n4cnc5c(N)ncnc54)[C@H](O)[C@@H]3O)[C@@H](O)[C@H]2O)C=CC1
Experiment: purified protein
Format: biochemical, Streptococcus pneumoniae
Conditions: 100 µM bovine cytochrome c, 0.1 µM SpNOX, 1 µM FAD, 50 mM Tris pH 7.0, 250 mM NaCl, room temperature, aerobic

B1: SpNOX (Streptococcus pneumoniae NOX) (Streptococcus pneumoniae R6) (protein)
chain: EFSMKSVKGLLFIIASFILTLLTWMNTSPQFMIPGLALTSLSLTFILATRLPLLESWFHSLEKVYTVHKFTAFLSIILLIFHNFSMGGLWGSRLAAQFGNLAIYIFASIILVAYLGKYIQYEAWRWIHRLVYLAYILGLFHIYMIMGNRLLTFNLLSFLVGSYALLGLLAGFYIIFLYQKISFPYLGKITHLKRLNHDTREIQIHLSRPFNYQSGQFAFLKIFQEGFESAPHPFSISGGHGQTLYFTVKTSGDHTKNIYDNLQAGSKVTLDRAYGHMIIEEGRENQVWIAGGIGITPFISYIREHPILDKQVHFYYSFRGDENAVYLDLLRNYAQKNPNFELHLIDSTKDGYLNFEQKEVPEHATVYMCGPISMMKALAKQIKKQNPKTELIYEGFKFK
notes: residues 2-400, N-terminal 6xHis-PreScission tag cleaved, E. coli C41(DE3), LMNG micelles, monomer, 46 kDa, two b-type hemes and FAD
With B1 the Km was 3.41 µM and the kcat was 3.33 s⁻¹.

Reference: publication PMC11564096, “Structural and mechanistic insights into Streptococcus pneumoniae NADPH oxidase” (Nature Structural & Molecular Biology, 2024)
